Results on 1 substance are retold here after patent publication US20240010741A1.

For test [1], the target named is cell-expressed CD40 (UniProt P25942). Nature of the test: cell binding on HEK-Blue-CD40L cells, Alexa-Fluor-488 anti-human IgG, high content imaging.
Test [2] has as its target recombinant CD40 protein (UniProt P25942). Nature of the test: CD40L competition ELISA: antibody (5 µg/ml) preincubated with recombinant CD40 (1.7 µg/ml), complex added to coated CD40L, detected with anti-human F(ab)2-peroxidase; a high signal means no competition with CD40L (antibody and CD40L bound to CD40 together). (An ELISA detects its analyte on a solid surface through an enzyme-linked reagent.)

cell-expressed CD40, sequence (P25942 21-277 limits assumed): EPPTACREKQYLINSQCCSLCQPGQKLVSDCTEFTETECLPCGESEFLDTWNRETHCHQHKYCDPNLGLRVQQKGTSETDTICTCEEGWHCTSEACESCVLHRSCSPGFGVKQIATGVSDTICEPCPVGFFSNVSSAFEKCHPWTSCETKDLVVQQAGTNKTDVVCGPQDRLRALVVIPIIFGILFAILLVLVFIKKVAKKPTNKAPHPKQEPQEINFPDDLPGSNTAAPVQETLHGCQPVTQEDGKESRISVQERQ
recombinant CD40 protein, sequence (P25942 21-193 limits assumed): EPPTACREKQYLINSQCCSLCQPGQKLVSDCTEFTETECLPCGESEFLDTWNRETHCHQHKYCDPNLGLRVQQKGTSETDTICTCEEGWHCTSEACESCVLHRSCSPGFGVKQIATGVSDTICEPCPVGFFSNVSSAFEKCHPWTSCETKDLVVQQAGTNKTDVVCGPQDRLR

In turn, CP-870,893 IgG1-LALA (antibody) gave an EC50 in test [1] of 0.0145 µg/mL. Moreover, the OD at 450 nm in test [2] amounted to 2.54 OD.

For orientation: EC50 means the midpoint of the concentration-response curve. Read a high EC50 as a need for much substance.
